In patent US20250076311A1 (Chugai, published 2025):

B1: M103205H795-MY206/M103202L889-SK1 (antibody, human IgG1, kappa, name in EU numbering)
heavy: QVTLKESGPVLVKPTETLTLTCTVSGIDLSHDDISWVRQAPGKGLEWVGIISYAGSTYYASWAKGRLTISKDTSKNQVVLTMTNMDPVDTATYYCARGVPAYSHGGDLWGQGTLVTVSSASTKGPSVFPLAPSSKSTSGGTAALGCLVKDYFPEPVTVSWNSGALTSGVHTFPAVLQSSGLYSLSSVVTVPSSSLGTQTYICNVNHKPSNTKVDKKVEPKSCDKTHTCPPCPAPELLNGPVVFLFPPKPKDTLMISRTPEVTCVVVDVSDEDPEVKFNWYVDGVEVHNAKTKPREELYNSTYRVVSVLTVLHQDWLNGKEYKCKVSNKALPKPIEKTISKAKGQPREPQVYTLPPSREEMTKNQVSLTCLVKGFYPSDIAVEWESNGQPENNYKTTPPVLDSDGSFFLYSKLTVDKSRWQQGNVFSCSVMHEALHNHYTQKSLSLSP
light: DIVMTQSPATLSLSPGERATLSCTSSQSVYHANWLSWFQQKPGQPPKLLIYWASTLAYGVPSRFSGSGSGTDFTLTISSLQPEDAATYYCAGGYGGGRYAFGQGTKVEIKRTVAAPSVFIFPPSDEQLKSGTASVVCLLNNFYPREAKVQWKVDNALQSGNSQESVTEQDSKDSTYSLSSTLTLSKADYEKHKVYACEVTHQGLSSPVTKSFNRGEC
notes: Fc variant of MS1032LO06-SG1; positions in EU numbering
B2: M103205H795-MY280 (heavy chain) with M103202L889-SK1 (light chain) (antibody, human IgG1, kappa, name in EU numbering)
heavy: QVTLKESGPVLVKPTETLTLTCTVSGIDLSHDDISWVRQAPGKGLEWVGIISYAGSTYYASWAKGRLTISKDTSKNQVVLTMTNMDPVDTATYYCARGVPAYSHGGDLWGQGTLVTVSSASTKGPSVFPLAPSSKSTSGGTAALGCLVKDYFPEPVTVSWNSGALTSGVHTFPAVLQSSGLYSLSSVVTVPSSSLGTQTYICNVNHKPSNTKVDKKVEPKSCDKTHTCPPCPAPELLVGPSVFLFPPKPKDTLMISRTPEVTCVVVDVSDEDPEVKFNWYVDGVEVHNAKTKPREELYNSTYRVVSVLTVLHQDWLNGKEYKCKVSNKALPKPIEKTISKAKGQPREPQVYTLPPSREEMTKNQVSLTCLVKGFYPSDIAVEWESNGQPENNYKTTPPVLDSDGSFFLYSKLTVDKSRWQQGNVFSCSVMHEALHNHYTQKSLSLSP
light: DIVMTQSPATLSLSPGERATLSCTSSQSVYHANWLSWFQQKPGQPPKLLIYWASTLAYGVPSRFSGSGSGTDFTLTISSLQPEDAATYYCAGGYGGGRYAFGQGTKVEIKRTVAAPSVFIFPPSDEQLKSGTASVVCLLNNFYPREAKVQWKVDNALQSGNSQESVTEQDSKDSTYSLSSTLTLSKADYEKHKVYACEVTHQGLSSPVTKSFNRGEC
notes: Substitutions introduced into M103205H795-SG1; positions in EU numbering
B3: M103205H795-MY227 (heavy chain) with M103202L889-SK1 (light chain) (antibody, human IgG1, kappa, name in EU numbering)
heavy: QVTLKESGPVLVKPTETLTLTCTVSGIDLSHDDISWVRQAPGKGLEWVGIISYAGSTYYASWAKGRLTISKDTSKNQVVLTMTNMDPVDTATYYCARGVPAYSHGGDLWGQGTLVTVSSASTKGPSVFPLAPSSKSTSGGTAALGCLVKDYFPEPVTVSWNSGALTSGVHTFPAVLQSSGLYSLSSVVTVPSSSLGTQTYICNVNHKPSNTKVDKKVEPKSCDKTHTCPPCPAPELLGYPSVFLFPPKPKDTLMISRTPEVTCVVVDVSDEDPEVKFNWYVDGVEVHNAKTKPREEQYNSTYRVVSVLTVLHQDWLNGKEYKCKVSNKALPKPIEKTISKAKGQPREPQVYTLPPSREEMTKNQVSLTCLVKGFYPSDIAVEWESNGQPENNYKTTPKVLDSDGSFFLYSKLTVDKSRWQQGNVFSCSVMHEALHNHYTQKSLSLSP
light: DIVMTQSPATLSLSPGERATLSCTSSQSVYHANWLSWFQQKPGQPPKLLIYWASTLAYGVPSRFSGSGSGTDFTLTISSLQPEDAATYYCAGGYGGGRYAFGQGTKVEIKRTVAAPSVFIFPPSDEQLKSGTASVVCLLNNFYPREAKVQWKVDNALQSGNSQESVTEQDSKDSTYSLSSTLTLSKADYEKHKVYACEVTHQGLSSPVTKSFNRGEC
notes: as for B2
B4: M103205H795-MY229 (heavy chain) with M103202L889-SK1 (light chain) (antibody, human IgG1, kappa, name in EU numbering)
heavy: QVTLKESGPVLVKPTETLTLTCTVSGIDLSHDDISWVRQAPGKGLEWVGIISYAGSTYYASWAKGRLTISKDTSKNQVVLTMTNMDPVDTATYYCARGVPAYSHGGDLWGQGTLVTVSSASTKGPSVFPLAPSSKSTSGGTAALGCLVKDYFPEPVTVSWNSGALTSGVHTFPAVLQSSGLYSLSSVVTVPSSSLGTQTYICNVNHKPSNTKVDKKVEPKSCDKTHTCPPCPAPELLGYPSVFLFPPKPKDTLMISRTPEVTCVVVDVSDEDPEVKFNWYVDGVEVHNAKTKPREELYNSTYRVVSVLTVLHQDWLNGKEYKCKVSNKALPKPIEKTISKAKGQPREPQVYTLPPSREEMTKNQVSLTCLVKGFYPSDIAVEWESNGQPENNYKTTPKVLDSDGSFFLYSKLTVDKSRWQQGNVFSCSVMHEALHNHYTQKSLSLSP
light: DIVMTQSPATLSLSPGERATLSCTSSQSVYHANWLSWFQQKPGQPPKLLIYWASTLAYGVPSRFSGSGSGTDFTLTISSLQPEDAATYYCAGGYGGGRYAFGQGTKVEIKRTVAAPSVFIFPPSDEQLKSGTASVVCLLNNFYPREAKVQWKVDNALQSGNSQESVTEQDSKDSTYSLSSTLTLSKADYEKHKVYACEVTHQGLSSPVTKSFNRGEC
notes: as for B2
B5: M103205H795-MY321 (heavy chain) with M103202L889-SK1 (light chain) (antibody, human IgG1, kappa, name in EU numbering)
heavy: QVTLKESGPVLVKPTETLTLTCTVSGIDLSHDDISWVRQAPGKGLEWVGIISYAGSTYYASWAKGRLTISKDTSKNQVVLTMTNMDPVDTATYYCARGVPAYSHGGDLWGQGTLVTVSSASTKGPSVFPLAPSSKSTSGGTAALGCLVKDYFPEPVTVSWNSGALTSGVHTFPAVLQSSGLYSLSSVVTVPSSSLGTQTYICNVNHKPSNTKVDKKVEPKSCDKTHTCPPCPAPELLHGPSVFLFPPKPKDTLMISRTPEVTCVVVDVSDEDPEVKFNWYVDGVEVHNAKTKPREEQYNSTYRVVSVLTVLHQDWLNGKEYKCKVSNKALPKPIEKTISKAKGQPREPQVYTLPPSREEMTKNQVSLTCLVKGFYPSDIAVEWESNGQPENNYKTTPMVLDSDGSFFLYSKLTVDKSRWQQGNVFSCSVMHEALHNHYTQKSLSLSP
light: DIVMTQSPATLSLSPGERATLSCTSSQSVYHANWLSWFQQKPGQPPKLLIYWASTLAYGVPSRFSGSGSGTDFTLTISSLQPEDAATYYCAGGYGGGRYAFGQGTKVEIKRTVAAPSVFIFPPSDEQLKSGTASVVCLLNNFYPREAKVQWKVDNALQSGNSQESVTEQDSKDSTYSLSSTLTLSKADYEKHKVYACEVTHQGLSSPVTKSFNRGEC
notes: as for B2

Tests used:
[1] = target: T1, cynomolgus monkey FcγRIIa1 extracellular domain with C-terminal His-tag (cynomolgus monkey); assay: SPR (BIACORE), antibody captured, FcgR analyte
T1 construct: also called cyno FcgRIIa1; cynoFcγRIIa1; not shown: His-tag added to the C-terminus
T1 chain: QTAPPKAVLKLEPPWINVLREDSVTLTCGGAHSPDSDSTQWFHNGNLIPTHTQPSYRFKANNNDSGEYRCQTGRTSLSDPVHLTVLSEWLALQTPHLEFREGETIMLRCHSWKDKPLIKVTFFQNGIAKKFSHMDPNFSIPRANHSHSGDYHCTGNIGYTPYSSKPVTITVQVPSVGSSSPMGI

[2] = target: T2, human FcγRIIb extracellular domain with C-terminal His-tag (human, UniProt P31994 43-217); assay: SPR (BIACORE), antibody captured, FcgR analyte
T2 construct: also called human FcgRIIb; not shown: His-tag added to the C-terminus
T2 sequence: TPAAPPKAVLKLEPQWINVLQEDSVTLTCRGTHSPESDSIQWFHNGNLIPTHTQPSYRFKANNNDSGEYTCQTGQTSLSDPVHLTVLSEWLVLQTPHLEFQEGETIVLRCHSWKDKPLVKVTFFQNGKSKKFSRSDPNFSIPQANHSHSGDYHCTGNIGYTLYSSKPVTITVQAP

[3] = target: T3, cynomolgus monkey FcγRIIIaS extracellular domain with C-terminal His-tag (cynomolgus monkey, UniProt A3RFZ7 21-206 (rhesus entry)); assay: SPR (BIACORE), antibody captured, FcgR analyte
T3 construct: also called cyno FcgRIIIaS; cynoFcγRIIIaS; not shown: His-tag added to the C-terminus

[4] = target: T4, cynomolgus monkey FcγRIIa3 extracellular domain with C-terminal His-tag (cynomolgus monkey); assay: SPR (BIACORE), antibody captured, FcgR analyte
T4 construct: also called cyno FcgRIIa3; cynoFcγRIIa3; not shown: His-tag added to the C-terminus
T4 chain: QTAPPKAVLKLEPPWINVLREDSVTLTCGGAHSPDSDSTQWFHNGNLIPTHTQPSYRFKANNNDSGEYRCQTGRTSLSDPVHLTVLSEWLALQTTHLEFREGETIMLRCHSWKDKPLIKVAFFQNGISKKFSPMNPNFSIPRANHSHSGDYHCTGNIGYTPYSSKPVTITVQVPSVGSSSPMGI

[5] = target: T5, cynomolgus monkey FcγRIIIaS extracellular domain with C-terminal His-tag (cynomolgus monkey, UniProt Q8SPW2 21-206 at identity 1.00)); assay: SPR; KD of SG1 / KD of variant
T5 construct: also called cyno FcγRIIIaS; FcgRIIIaS
T5 chain: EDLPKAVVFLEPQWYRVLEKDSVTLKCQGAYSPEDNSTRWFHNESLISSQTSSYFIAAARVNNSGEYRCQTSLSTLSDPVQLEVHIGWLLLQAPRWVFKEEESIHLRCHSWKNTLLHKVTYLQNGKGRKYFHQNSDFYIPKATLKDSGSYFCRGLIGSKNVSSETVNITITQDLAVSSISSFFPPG
Description: (§1) The kinetic analysis of interactions between these antibodies and FcγR was carried out using BIACORE® T200 or BIACORE® 4000 (GE Healthcare). HBS-EP+ (GE Healthcare) was used as the running buffer, and the measurement temperature was set to 25° C. […] After the measurement, the antibody captured on the chip was washed off by allowing reaction with 10 mM glycine-HCl, pH1.5 and 25 mM NaOH so that the chip was regenerated and used repeatedly. The sensorgrams obtained as measurement results were analyzed by the 1:1 Langmuir binding model using the BIACORE® Evaluation Software to calculate the binding rate constant ka (L/mol/s) and dissociation rate constant kd (1/s), and the dissociation constant KD (mol/L) was calculated from these values. […] Regarding such interactions, KD values were calculated using the following 1:1 binding model described in BIACORE® T100 Software Handbook BR1006-48 Edition AE.

[6] = target: T6, cynomolgus monkey FcγRIIa3 extracellular domain with C-terminal His-tag (cynomolgus monkey); assay: SPR; KD of SG1 / KD of variant
T6 construct: also called cyno FcγRIIa3; FcgRIIa3
T6 chain: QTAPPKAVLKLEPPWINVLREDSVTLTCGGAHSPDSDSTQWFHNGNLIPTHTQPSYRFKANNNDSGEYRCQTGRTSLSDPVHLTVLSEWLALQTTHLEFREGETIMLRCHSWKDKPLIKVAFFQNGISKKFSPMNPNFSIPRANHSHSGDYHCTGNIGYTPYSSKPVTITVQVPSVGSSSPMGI
Description: as §1

[7] = target: T7, human FcγRIIaR extracellular domain with C-terminal His-tag (human, UniProt P12318 34-217); assay: SPR; KD of SG1 / KD of variant
T7 construct: also called human FcγRIIa (type R); FcgRIIaR
T7 chain: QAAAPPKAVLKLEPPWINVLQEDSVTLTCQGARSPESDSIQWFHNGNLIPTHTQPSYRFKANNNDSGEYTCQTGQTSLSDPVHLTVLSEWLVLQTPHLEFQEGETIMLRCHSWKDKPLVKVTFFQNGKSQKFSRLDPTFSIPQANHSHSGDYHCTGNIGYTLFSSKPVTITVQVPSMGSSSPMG
Description: as §1

Row | Binder | KD fold (SG1 = 1) [5] [fold] | KD fold (SG1 = 1) [6] [fold] | other results
1 | B1 |  |  | Kd [1]: 810 nM; Kd [2]: 900 nM; Kd [3]: 3500 nM; Kd [4]: 3000 nM
2 | B2 | 0.2 | 3.7 | 
3 | B3 | 0.09 | 6.8 | 
4 | B4 | 0.09 | 8.9 | KD fold (SG1 = 1) [7]: 13.6 fold
5 | B5 |  | 5.9 | 
